The text below walks through data of patent US20160097044A1, “Antimicrobial Enzyme Fusions Reduce Resistance and Kill Intracellular Staphylococcus aureus” (The United States of America, as Represented by the …, priority 2014, published 2016).

Data set [1] has as its system S. aureus Newbould 305. Description: Murine model of mastitis, bacterial load. In kind it is in vivo, C57BL6/SJL mice. The settings on record: single 1.25 nmoles intramammary infusion 30 minutes post infection, 18 h. The protocol:
FIG. 6a depicts the specific activity of peptidoglycan hydrolase fusion constructs in vitro in a turbidity reduction assay with S. aureus Newbould 305 resuspended in lysis buffer to an OD600nm of 1.0 and treated with 1 μM final concentrations of each peptidoglycan hydrolase. The maximum specific activity for three experiments are represented as an average with SEM error bars. FIG. 6b depicts the bacterial burden in mice with mastitis treated with recombinant peptidoglycan hydrolases. Colony Forming Units (CFUs) from infected murine mammary glands following a single treatment with 50 μl of 25 μM peptidoglycan hydrolase (1.25 nmol). Each data point represents the average of duplicate bacterial platings. The horizontal bars represent the average CFU/mg for each group. FIG. 6c illustrates the TNFα response in mice with mastitis that were treated with peptidoglycan hydrolases. Data represents a minimum of 7 measurements in duplicate. Log TNFα was used for statistical analysis. Single asterisks indicate a significant difference from buffer control (p<0.05); double asterisks indicate a significant difference from the parental enzyme (p<0.05).
To evaluate the efficacy of purified, individually administered peptidoglycan hydrolases in a murine model of bovine mastitis, female C57BL6/SJL mice were challenged by the intramammary route with 100 CFU S. aureus Newbould 305 in 50 μl buffer. A single 1.25 nmoles intramammary infusion of each desired peptidoglycan hydrolase (50 μl of a 25 μM solution) or 50 μl PBS was given 30 minutes post infection [with up to six glands treated per animal, each gland receiving a unique treatment] as described earlier (Schmelcher et al. 2012. Appl. Environ. Microbiol. 78:2297-2305; Kerr et al. 2001. Nat. Biotechnol. 19:66-70). Dams were euthanized 18 h post infusion, the mammary glands were aseptically dissected, and portions of the gland were used for determination of bacterial load and TNFα concentrations, as described previously (Schmelcher et al., supra).
Statistical analysis: The variables were analyzed as two-factor mixed models with Treatment as the factor and Mouse as random Blocks. This model […] within mouse correlations. Log(TNFα) was used. The variance grouping technique was used for log CFU and log TNFα to correct for variance heterogeneity. Means comparisons were done with Sidak adjusted p-values so that the experiment-wise error was 0.05. Log(TNFα) is back-transformed to the original units for graphing.

The test system of data set [2] is live S. aureus strain Newman cells. The experiment in a line: Turbidity reduction assay. The settings on record: 30 minute assay, 150 mM NaCl in SLB, FIG. 3d. In kind it is cell-based. The text has this: FIGS. 3a-3d depict peptidoglycan hydrolase purity and the S. aureus bactericidal assay. […] FIG. 3b is a zymogram analysis using whole S. aureus (Newman) cells embedded within the gel matrix. FIG. 3c is a plate lysis analysis of peptidoglycan hydrolase constructs using live S. aureus (Newman) cell lawns clarified with indicated picomoles of each purified peptidoglycan hydrolase. FIG. 3d is a turbidity reduction analysis showing the linear range of enzyme concentration. A twofold dilution series of each enzyme was used in a 30 minute turbidity reduction assay on live S. aureus strain Newman cells to determine the enzyme concentrations that are within the linear range for each enzyme. Reaction conditions were 150 mM NaCl in SLB. Black, dark grey, light grey, and white bars represent peptidoglycan hydrolase constructs lysostaphin (L), LysK (K), triple fusion K-L, and triple fusion L-K, respectively, as named in FIG. 1a. Values are reported as the maximum rate ΔOD600nm/min±SEM.
SDS-PAGE, zymogram, turbidity reduction and plate lysis assays were performed as described previously (Becker et al. 2009, supra) with minor modifications as follows. For SDS-PAGE and zymogram analysis, one μg of the purified peptidoglycan hydrolase proteins and Kaleidoscope protein standards (Invitrogen, Carlsbad, Calif.) were analyzed by 15% SDS-PAGE. […]

The conditions of data set [3]: bovine, in vivo; cited from earlier work.

On to “K-L: both LysK lytic domains fused to the N-terminus of lysostaphin; SEQ ID NO:5, protein SEQ ID NO:6”, for which, in data set [1], the “bacterial load / clearance of mammary glands (in words)” value is recorded as “not able to clear the mammary gland bacterial infection more than buffer alone”. In addition, the “turbidity reduction activity compared to parental enzymes” value in data set [2] is reported as “as effective as the parental peptidoglycan hydrolases”. Regarding “L: 247 amino acid mature (secreted) lysostaphin, staphylolytic bacteriocin, C-terminal His6 tag; SEQ ID NO:1 [reference compound]”, in data set [1], the “reduction of bacterial load in mammary glands compared to controls” value is recorded as “approximately 4 logs”. The “treatments after which specific antibodies were detectable” value in data set [3] is 18-21 treatments.

B1: L-K: LysK lytic domains inserted between lysostaphin's M23 endopeptidase domain and SH3b cell wall binding domain; SEQ ID NO:7, protein SEQ ID NO:8 (protein)
chain: MAATHEHSAQWLNNYKKGYGYGPYPLGINGGMHYGVDFFMNIGTPVKAISSGKIVEAGWSNYGGGNQIGLIENDGVHRQWYMHLSKYNVKVGDYVKAGQIIGWSGSTGYSTAPHLHFQRMVNSFSNSTAQDPMPFLKSAGYGKAGGTVTPTPNTGLDAKTQAEINKRLDAYAKGTVDSPYRVKKATSYDPSFGVMEAGAIDADGYYHAQCQDLITDYVLWLTDNKVRTWGNAKDQIKQSYGTGFKIHENKPSTVPKKGWIAVFTSGSYEQWGHIGIVYDGGNTSTFTILEQNWNGYANKKPTKRVDNYYGLTHFIEIPVKAGTTVKKETAKKSASKTPAPKKKATLKVSKNHINYTMDKRGKKPEGMVIHNDAGRSSGQQYENSLANAGYARYANGIAHYYGSEGYVWEAIDAKNQIAWHTGDGTGANSGNFRFAGIEVCQSMSASDAQFLKNEQAVFQFTAEKFKEWGLTPNRKTVRLHMEFVPTACPHRSMVLHTGFNPVTQGRPSQAIMNKLKDYFIKQIKNYMDKGTSSSTVVKDGKTSSASLDTVTPTPNTGWKTNKYGTLYKSESASFTPNTDIITRTTGPFRSMPQSGVLKAGQTIHYDEVMKQDGHVWVGYTGNSGQRIYLPVRTWNKSTNTLGVLWGTIKLEHHHHHH
modifications: Staphylococcus simulans & Phage K
With B1, in data set [2], the “turbidity reduction activity compared to parental enzymes” value is “as effective as the parental peptidoglycan hydrolases”.
